The record followed here is article PMC4400868.

The nature of this series: AUC.

With “Leucine-rich amelogenin protein, phosphorylated at S16 (LRAP(+P))”, the “% monomers (2.5 mM CaCl2, pH 7.4)” value is reported as 94% monomers; the monomer % (0.78 mg/mL, 50 mM NaCl, pH 7.4) is 93.6%; the monomer % (0.78 mg/mL, 50 mM NaCl, pH 8.0) came out at 92.3%; the monomer % (0.92 mg/mL, 150 mM NaCl, pH 8.0) came to 92.6%. This substance also yielded a monomer % (0.92 mg/mL, 200 mM NaCl, pH 8.0) of 97.9%; a monomer % (1.0 mg/mL, 50 mM NaCl, pH 5.8) of 84.4%; a monomer % (1.0 mg/mL, 150 mM NaCl, pH 5.8) of 90.9%; a monomer % (1.0 mg/mL, 150 mM NaCl, pH 7.4) of 93.9%. Besides, the monomer % (1.0 mg/mL, 200 mM NaCl, pH 5.8) was determined as 94.5% and the monomer % (1.0 mg/mL, 200 mM NaCl, pH 7.4) worked out at 97.7%.
